Results taken from US20230125550A1 (ARCELLX, published 2023).
Changes are numbered by the printed parent chain.

Molecular target: T1, recombinant human CD123-Fc (human, UniProt P26951 19-305)
T1 construct: not shown: Fc part of CD123-Fc
T1 sequence: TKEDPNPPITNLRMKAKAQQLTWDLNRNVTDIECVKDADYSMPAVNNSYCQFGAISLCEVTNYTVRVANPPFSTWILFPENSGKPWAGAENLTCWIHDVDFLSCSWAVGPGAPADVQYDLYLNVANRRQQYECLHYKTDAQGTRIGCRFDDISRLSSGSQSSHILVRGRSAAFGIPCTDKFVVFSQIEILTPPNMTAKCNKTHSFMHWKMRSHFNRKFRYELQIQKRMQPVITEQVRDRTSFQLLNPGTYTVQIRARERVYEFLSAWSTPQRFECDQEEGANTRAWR
Assay: phage ELISA, captured CD123-Fc
Description: Individual colonies containing phagemid from BCMA panning output were picked and phage were rescued in 96-well format using VCSM13 helper phage following standard protocols. To assay target binding by ELISA, 96-well plates were coated with 1.3 microg/ml goat anti-human IgG1-Fc antibody followed by incubation with 5 nM of recombinant human target (BCMA-Fc, CD123-Fc, AFP, or AFP123) or IgG1-Fc. 50 microl of rescued phage diluted 5× in ELISA blocking buffer was then added to each well. Binding was detected using an HRP-conjugated anti-M13 antibody and the ELISA ratio for each sequence is reported as the absorbance at 450 nm for target (i.e., BCMA-Fc, CD123-Fc, AFP, or AFP123) divided by that for IgG1-Fc averaged across all screened wells containing that clone.

B1: SEQ ID NO: 323 (designed binder)
chain: MGSWTEFYYRLEAIEDRLWALGGSEAELAAFEKEIAAFESELQAYKGKGNPEVEFLRVEAANIRDMLQAYRHN
notes: D domain, on phage
ELISA_avg: 7.5 ratio A450 target/IgG1-Fc

B2: SEQ ID NO: 409 (designed binder)
chain: MGSWVEFHMRLDAIYERLDALGGSEAELAAFEKEIAAFESELQAYKGKGNPEVEWLRTAAANIRVELQAYRHN
notes: D domain, on phage
ELISA_avg: 9.1 ratio A450 target/IgG1-Fc

B3: SEQ ID NO: 406 (designed binder)
chain: B2 chain with V5Y, H8A, M9K, D19V, T58S, A59S, V65E
notes: D domain, on phage
ELISA_avg: 15.3 ratio A450 target/IgG1-Fc

B4: SEQ ID NO: 415 (designed binder)
chain: B2 chain with H8E, Y15V, E16G, D19Y, W55K, T58R, A59W, V65S
notes: D domain, on phage
ELISA_avg: 25.3 ratio A450 target/IgG1-Fc

B5: SEQ ID NO: 403 (designed binder)
chain: B2 chain with V5S, H8N, D19T, T58H, A59S, N62L, V65L
notes: D domain, on phage
ELISA_avg: 11.4 ratio A450 target/IgG1-Fc

B6: SEQ ID NO: 422 (designed binder)
chain: B2 chain with V5T, H8A, M9W, E16D, D19L, T58H, A59V, V65R
notes: D domain, on phage
ELISA_avg: 16.1 ratio A450 target/IgG1-Fc

B7: SEQ ID NO: 326 (designed binder)
chain: MGSWTEFSIRLEAIYDRLVALGGSEAELAAFEKEIAAFESELQAYKGKGNPEVEVLRTYAAFIRHELQAYRHN
notes: D domain, on phage
ELISA_avg: 10.2 ratio A450 target/IgG1-Fc

B8: SEQ ID NO: 419 (designed binder)
chain: B2 chain with V5T, H8N, M9L, E16G, D19S, W55F, T58A
notes: D domain, on phage
ELISA_avg: 19.3 ratio A450 target/IgG1-Fc

B9: SEQ ID NO: 404 (designed binder)
chain: B2 chain with V5I, H8N, D19V, T58K, A59V, V65L
notes: D domain, on phage
ELISA_avg: 11.4 ratio A450 target/IgG1-Fc

B10: SEQ ID NO: 324 (designed binder)
chain: B7 chain with T5Y, S8V, Y15E, V19W, T58W, F62D
notes: D domain, on phage
ELISA_avg: 6.4 ratio A450 target/IgG1-Fc

B11: SEQ ID NO: 408 (designed binder)
chain: B2 chain with H8Y, M9T, E16G, T58Q, A59V, V65M
notes: D domain, on phage
ELISA_avg: 14.4 ratio A450 target/IgG1-Fc

B12: SEQ ID NO: 421 (designed binder)
chain: B2 chain with V5N, H8A, M9W, E16S, D19A, T58V, V65Y
notes: D domain, on phage
ELISA_avg: 17.7 ratio A450 target/IgG1-Fc

B13: SEQ ID NO: 414 (designed binder)
chain: B2 chain with M9L, E16G, D19M, W55N, T58V, A59W, V65N
notes: D domain, on phage
ELISA_avg: 17.5 ratio A450 target/IgG1-Fc

B14: SEQ ID NO: 410 (designed binder)
chain: B2 chain with V5Y, H8A, M9I, D19H, W55Y, T58V, A59W, V65T
notes: D domain, on phage
ELISA_avg: 25.5 ratio A450 target/IgG1-Fc

B15: SEQ ID NO: 418 (designed binder)
chain: B2 chain with V5T, H8N, M9L, E16D, D19M, T58A, A59S, N62A
notes: D domain, on phage
ELISA_avg: 14.4 ratio A450 target/IgG1-Fc

B16: SEQ ID NO: 424 (designed binder)
chain: B2 chain with H8Y, M9I, E16V, D19M, W55K, T58S, A59Y, V65Q
notes: D domain, on phage
ELISA_avg: 16.1 ratio A450 target/IgG1-Fc

B17: SEQ ID NO: 423 (designed binder)
chain: B7 chain with T5V, E12D, D16T, V55M, T58K, Y59G, F62N, H65K
notes: D domain, on phage
ELISA_avg: 15.1 ratio A450 target/IgG1-Fc

B18: SEQ ID NO: 407 (designed binder)
chain: B2 chain with V5T, H8Y, M9V, T58M, A59V, V65T
notes: D domain, on phage
ELISA_avg: 16 ratio A450 target/IgG1-Fc

B19: SEQ ID NO: 416 (designed binder)
chain: B2 chain with H8N, M9I, D19Y, W55K, T58H, A59W, N62S, V65R
notes: D domain, on phage
ELISA_avg: 13.4 ratio A450 target/IgG1-Fc

B20: SEQ ID NO: 325 (designed binder)
chain: B7 chain with F62N
notes: D domain, on phage
ELISA_avg: 11.9 ratio A450 target/IgG1-Fc

B21: SEQ ID NO: 412 (designed binder)
chain: MGSWSEFYVRVDAIYARLSALGGSEAELAAFEKEIAAFESELQAYKGKGNPEVEKLRVWAANIRHELQAYRHN
notes: D domain, on phage
ELISA_avg: 14.7 ratio A450 target/IgG1-Fc

B22: SEQ ID NO: 417 (designed binder)
chain: B2 chain with V5H, H8G, M9V, E16D, D19M, W55F, T58Q, V65S
notes: D domain, on phage
ELISA_avg: 15.6 ratio A450 target/IgG1-Fc

B23: SEQ ID NO: 420 (designed binder)
chain: B2 chain with H8N, M9W, E16D, D19V, T58V, A59S, N62K, V65G
notes: D domain, on phage
ELISA_avg: 9.3 ratio A450 target/IgG1-Fc

B24: SEQ ID NO: 402 (designed binder)
chain: B2 chain with V5S, H8N, D19T, T58H, A59S, N62R, V65L
notes: D domain, on phage
ELISA_avg: 13.7 ratio A450 target/IgG1-Fc

B25: SEQ ID NO: 411 (designed binder)
chain: B2 chain with V5N, H8V, M9I, D19L, W55Y, T58M, V65M
notes: D domain, on phage
ELISA_avg: 16.6 ratio A450 target/IgG1-Fc

B26: SEQ ID NO: 405 (designed binder)
chain: B2 chain with V5Y, M9H, D19L, T58S, A59S, V65K
notes: D domain, on phage
ELISA_avg: 11.9 ratio A450 target/IgG1-Fc

B27: SEQ ID NO: 413 (designed binder)
chain: B21 chain with Y8H, V11L, S19D, K55R, V58E, H65R
notes: D domain, on phage
ELISA_avg: 14.4 ratio A450 target/IgG1-Fc

B28: SEQ ID NO: 318 (designed binder)
chain: MGSWVEFWFRLEAIDSRLWALGGSEAELAAFEKEIAAFESELQAYKGKGNPEVEWLREEAAAIREDLQAYRHN
notes: D domain, on phage
ELISA_avg: 3.2 ratio A450 target/IgG1-Fc

B29: SEQ ID NO: 322 (designed binder)
chain: B1 chain with T5Y, Y8E, Y9T, E15Y, F55L, N62E, D65E, M66D
notes: D domain, on phage
ELISA_avg: 3.2 ratio A450 target/IgG1-Fc

B30: SEQ ID NO: 372 (designed binder)
chain: MGSWDEFVDRLWAIEERLWALGGSEAELAAFEKEIAAFESELQAYKGKGNPEVEELRIQAAIIREALQAYRHN
notes: D domain, on phage
ELISA_avg: 6 ratio A450 target/IgG1-Fc

B31: SEQ ID NO: 379 (designed binder)
chain: B30 chain with D5F, V8W, W12E, E15W, W19D, I58R, Q59E, A66D
notes: D domain, on phage
ELISA_avg: 10.3 ratio A450 target/IgG1-Fc

B32: SEQ ID NO: 328 (designed binder)
chain: MGSWVEFHERLEAIEDRLMALGGSEAELAAFEKEIAAFESELQAYKGKGNPEVEYLREDAAFIRQLLQAYRHN
notes: D domain, on phage
ELISA_avg: 3.7 ratio A450 target/IgG1-Fc

B33: SEQ ID NO: 319 (designed binder)
chain: B28 chain with F9Q, D15E, W55F, A62E, E65W, D66E
notes: D domain, on phage
ELISA_avg: 7.7 ratio A450 target/IgG1-Fc

B34: SEQ ID NO: 369 (designed binder)
chain: B30 chain with D5F, V8D, E16N, E55V, I58D, Q59N, I62W, A66I
notes: D domain, on phage
ELISA_avg: 4.2 ratio A450 target/IgG1-Fc

B35: SEQ ID NO: 317 (designed binder)
chain: B30 chain with D5A, V8E, E16D, E55Y, I58E, Q59E, I62A, E65F, A66E
notes: D domain, on phage
ELISA_avg: 6.2 ratio A450 target/IgG1-Fc

B36: SEQ ID NO: 363 (designed binder)
chain: B2 chain with H8D, D12S, Y15W, D19I, T58E, A59D, N62E, V65E, E66F
notes: D domain, on phage
ELISA_avg: 3.3 ratio A450 target/IgG1-Fc

B37: SEQ ID NO: 329 (designed binder)
chain: B32 chain with E9D, M19Y, Y55W, F62Y, Q65S, L66I
notes: D domain, on phage
ELISA_avg: 4.6 ratio A450 target/IgG1-Fc

B38: SEQ ID NO: 331 (designed binder)
chain: B32 chain with H8D, E9Q, E15Y, M19Y, Y55W, F62Q, Q65K, L66W
notes: D domain, on phage
ELISA_avg: 5.1 ratio A450 target/IgG1-Fc

B39: SEQ ID NO: 368 (designed binder)
chain: B30 chain with D5Y, V8Y, D9E, W12D, E55V, I58D, Q59W, I62W, A66D
notes: D domain, on phage
ELISA_avg: 8.4 ratio A450 target/IgG1-Fc

B40: SEQ ID NO: 332 (designed binder)
chain: B32 chain with E9D, M19L, Y55D, D59Y, F62G, Q65W, L66F
notes: D domain, on phage
ELISA_avg: 3.3 ratio A450 target/IgG1-Fc

B41: SEQ ID NO: 367 (designed binder)
chain: B28 chain with W8Y, F9S, E12D, D15E, S16D, E58I, E59A, A62S
notes: D domain, on phage
ELISA_avg: 9.4 ratio A450 target/IgG1-Fc

B42: SEQ ID NO: 320 (designed binder)
chain: B1 chain with T5S, Y8W, Y9Q, F55W, V58E, E59N, N62M, M66E
notes: D domain, on phage
ELISA_avg: 4.7 ratio A450 target/IgG1-Fc

B43: SEQ ID NO: 382 (designed binder)
chain: B30 chain with D5Y, V8E, E15D, E16N, I58V, Q59H, I62D, E65D, A66D
notes: D domain, on phage
ELISA_avg: 4.9 ratio A450 target/IgG1-Fc

B44: SEQ ID NO: 321 (designed binder)
chain: B28 chain with V5S, W8I, F9T, S16D, W55I, A62E, E65Q, D66H
notes: D domain, on phage
ELISA_avg: 3.3 ratio A450 target/IgG1-Fc

B45: SEQ ID NO: 397 (designed binder)
chain: B28 chain with V5M, W8E, F9E, E12W, E58S, A62W, E65M, D66E
notes: D domain, on phage
ELISA_avg: 3.2 ratio A450 target/IgG1-Fc

B46: SEQ ID NO: 316 (designed binder)
chain: B1 chain with Y8H, Y9D, E15D, F55Y, V58E, N62Q, D65W, M66E
notes: D domain, on phage
ELISA_avg: 5.8 ratio A450 target/IgG1-Fc

B47: SEQ ID NO: 380 (designed binder)
chain: B28 chain with V5F, W8E, F9D, D15Y, S16Q, W19D, E58D, A62W, E65S
notes: D domain, on phage
ELISA_avg: 5.5 ratio A450 target/IgG1-Fc

B48: SEQ ID NO: 330 (designed binder)
chain: B32 chain with V5I, H8Y, E9D, E15Y, M19D, Y55W, Q65S, L66W
notes: D domain, on phage
ELISA_avg: 7.5 ratio A450 target/IgG1-Fc

B49: SEQ ID NO: 383 (designed binder)
chain: B30 chain with D5F, V8Q, E15D, E16N, I58D, Q59H, I62M, E65W, A66E
notes: D domain, on phage
ELISA_avg: 3.2 ratio A450 target/IgG1-Fc

B50: SEQ ID NO: 381 (designed binder)
chain: B28 chain with V5F, W8H, F9D, E12W, S16E, W55I, A62D, E65L
notes: D domain, on phage
ELISA_avg: 3.5 ratio A450 target/IgG1-Fc

B51: SEQ ID NO: 364 (designed binder)
chain: B2 chain with H8D, M9Q, D19Y, T58D, A59E, N62E, V65E, E66H
notes: D domain, on phage
ELISA_avg: 10.5 ratio A450 target/IgG1-Fc

B52: SEQ ID NO: 370 (designed binder)
chain: MGSWYEFWDRLDALEDRLWALGGSEAELAAFEKEIAAFESELQAYKGKGNPEVEYLRDSAAFIREELQAYRHN
notes: D domain, on phage
ELISA_avg: 9.7 ratio A450 target/IgG1-Fc

B53: SEQ ID NO: 371 (designed binder)
chain: B30 chain with D5M, W12D, E16S, E55W, Q59E, I62F, A66E
notes: D domain, on phage
ELISA_avg: 5.8 ratio A450 target/IgG1-Fc
